{"source": "the nanobody polyreactivity screen of Harvey et al. (2022)"}
{"assay": "yeast display, Sf9 membrane polyspecificity reagent, FACS + sequencing; frameworks hold sequencing errors", "outline": "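Polyreactivity labels are assigned by the sorting gate from which each nanobody was recovered. The gates were low and high (top ~1%), set on anti-HA fluorescence for expression and streptavidin fluorescence for reagent binding. Before sorting, galactose-induced (36–48 hours) yeast display cells were stained for 1 hour at 4 °C with 10% biotinylated, detergent-solubilized Sf9 membrane reagent.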"}
{"sequence": "QVQLVESGGGLVQAGGSLRLSCAASGRIFTIYAMGWSRQAPGKERELVAAITVSTGSTYYADSVKGRFTISRDNAKNTVYLQMKSLKPEDTAVYYCAKRGQSYTYRRYDYWGQGTQVTVSS", "polyreactivity (PSR sort gate)": "low polyreactivity"}
{"sequence": "QVQLVESGGGLVQAGFSLRLSCAASGSILGSYVMGWCRQAPGKESELVAASSYSTSATYYADSVKGRFTISRDNAKNTVYLQMNSLKPEDPAVYYCNADLGSWYTWYDDWGQGTQVTVSS", "polyreactivity (PSR sort gate)": "high polyreactivity"}
{"sequence": "QVQLVESGGGFVQAGGSLRLSCAASGGIFGSYAIGWYRQAPGKERELVADITQSGGRTRNADSVKGRFTSSRDNAKNTVYLQKNSLKPEDTALYYCNAQDVDSGDDYDYWGQGTQVTVSS", "polyreactivity (PSR sort gate)": "low polyreactivity"}
{"sequence": "QVQLLESGGGLVQAGGSLRLSCAASGSILFTNAMGWYRQAPGKERELVAAISSGGSTYYADSVKGRFTFSRDNAKNTVYLQMNSLKPEDTAVYYSAADQLNVGREYVEYDYWGQGTQVTVSS", "polyreactivity (PSR sort gate)": "low polyreactivity"}
{"sequence": "QVQLVESGGGLVQAGGSLRLSCAASGRIFNVYAMGWYRQAPGKERELVASITSAGSTYYADSVKGRFTISRDNAKNTVYLQMNSLKPEDTAVYYCAADSYSVYYYTYDSWGQGTQVTVSS", "polyreactivity (PSR sort gate)": "low polyreactivity"}
{"sequence": "QVQLVESGGGLVQAGGSLRLSCAASGRTFYFNGMGWSRQAPGKETELVAVITKSGGDTYYADSVKGRFTISRDNAKNTVYLQMNSLKPEDTAVYYCAAVYGYYTYWIPGFTWAVDYWGQGTQVTVSS", "polyreactivity (PSR sort gate)": "low polyreactivity"}
{"sequence": "QVQLVESGGGLVQAGGSLRLSCAASGSTFTGNAMGWYRQAPGKERELVAAITKGGSRTYYADSVKGRFTISRDNAKNTVYLQMNSLKPEDTAVYYCAATSRGTDYWGQGTQVTVSS", "polyreactivity (PSR sort gate)": "high polyreactivity"}
{"sequence": "QVQLVESGGGLVQAGGSLRLSCAASGRTFRDNAMGWYRQAPGKERELVAAISRRGGSTYYADSVKGRFTISRDNAKNTVYLQMNSLKPEDTAVYYCAADRPDGWVDYWGQGTQVTVSS", "polyreactivity (PSR sort gate)": "low polyreactivity"}
{"sequence": "QVQLVESGGGLVQAGGSLRLSCAASGSTFLRNAMGWYRQAPGKQGSWVATISYDGDSTYYADSVTGRFTISRDNAKNTVYLQMNSLKPDDPAVYYCAASYSQTFWDKDDYWGQGTQVTVSS", "polyreactivity (PSR sort gate)": "low polyreactivity"}
{"sequence": "QVQLVESGGGLVQAGGSLRLSCAASGSTFDIYAMGWYRQAPGKERELVAAIRGRGGSTYYADSVKGRFTISRDNAKNTVSLQMNSLKPEDTAVYYCAAQTKRQRREFGFWGQGTQVTVSS", "polyreactivity (PSR sort gate)": "high polyreactivity"}
{"sequence": "QVQLVDSGGGLVQAGGSLRLSCAPSGTTYPGYAMGWYRQAPGKERELFAAIDRGGSTSYADSVKGRFTISRDNAKITVYLQMNSLKPEDTAFYYCAAEASVVHKSSDYDSWGQCTQVTVSS", "polyreactivity (PSR sort gate)": "low polyreactivity"}
{"sequence": "QVQLVESGGGLVQAGGSLRLSCAASGSTFAFYAMGWYRQAPGKERELVAAITWRVGSTYYADSVKGRFTISRDNAKNTVYLQMNSLKPEDTAVYYCAVDIPFYDSDYWGQGTQVTVSS", "polyreactivity (PSR sort gate)": "low polyreactivity"}
{"sequence": "QVQLVESGAGLVQAGGSLRLSCAASGSTFGRNAMGWYRQPPGKERELVASISSGGSTYYADSVKGRFTISRDNAKNTVYLQMNSLKPEDTAVYYCAKDWVYEISYYYYELDYWGQGTQVTVSS", "polyreactivity (PSR sort gate)": "low polyreactivity"}
{"sequence": "QVQLVESGGGLVQAGGSLRLSCAASGSTFESNAMGWYRQAPGKERELVAAISSSGGSTYYADSVKGRFTISRDNAKNTVYLQMNSLKPEDTAVYYCNKGGLSDYDYWGQGTQVTVSS", "polyreactivity (PSR sort gate)": "high polyreactivity"}
{"sequence": "QVQLVESCGGLVQAGGSLRLSCAASGSTFYRNAMGWYRQAPGKEREFVAAISFRGGGTYADSVKGRFTISRDNAKNTVYLQMNSLKPEDTAVYYCAADHLSYRRRYEYWGQGTQVTVSS", "polyreactivity (PSR sort gate)": "low polyreactivity"}
{"sequence": "QVQLVESGGGLFQAGGSLSLSCAATGIIFRSYAMGWYRQAPGKEREMVAAITRSGGSTYADSVKGRFTISRDNAKNTVDLQMNSLKPEDTAVYYCAADRYSGWVYRRDYWGQGTQVTVSS", "polyreactivity (PSR sort gate)": "low polyreactivity"}
{"sequence": "QVQLVESGGGLVQAGGSLRLSCAASGRTFSRNAMGWYRQAPGKERELVAAITSSGGSTYYADSVKGRFTISRDNAKNTVYLQMNSLKPEDTAVYYCNADATYRRGGGDYWGQGTQVTVSS", "polyreactivity (PSR sort gate)": "high polyreactivity"}
{"sequence": "QVQLVESGGGLVQAGGSLRLSCAASGNIFKGYAMGWYRQAPGKERALVAAISKSGGSTYDADSVKGRFTISRDNAKNTVYLQMNSLKPDDTAVYYCNARRKYGGGQTINGYDYWGQGTQVTVSS", "polyreactivity (PSR sort gate)": "high polyreactivity"}
{"sequence": "QVQLVESGGGLVQAGGSLRLSCAASGSIFVRNAMGWYRQAPGKERELVAAISGSGGRTYYADSEKGRFTISRDNAKNTVYLQMNSLKPEDTAVYYCAKEVTYWYGGNYDYWGQGTQVTVSS", "polyreactivity (PSR sort gate)": "high polyreactivity"}
{"sequence": "QVQLVESGGGLVQAGGSLRLSCAASGRTFRANAMGWSRQAPGKERELVAAITWDGGSTYYADSVKGRFTISRDNAKNTVYLQMNSLKPEDTAVYYCNTYPYLWGQGTQVTVSS", "polyreactivity (PSR sort gate)": "low polyreactivity"}
{"sequence": "QVQLVESGGGLVQAGGSLRLSCAASGLTFKYYAMGWYRQAPGKERELVAAINRSGSSTYYADSVKGRFTISRDNAKNTVYLQMNSLKPEDTAVYYCAKDSFTSTRQYDYWGQGTQVTVSS", "polyreactivity (PSR sort gate)": "low polyreactivity"}
{"sequence": "QVQLVESGGGLVQAGGSLRLSCSASGITFTGYGMGWYRQAPGKERELVAAIRLRTGSTYYADSVKGRFTISRDNAKNTVYLQMNSLKPEDTAVYYCAKKWSSKYWGQGTQVTVSS", "polyreactivity (PSR sort gate)": "high polyreactivity"}
{"sequence": "QVQLVESGGGLVQAGGRLRLSCADSGRTFPLYVMGWYRQAPGKERELVAAISARGGSTYYADSVKGRFTISRDNAKNTVYLQMNSLKPEDTAVYYCATLVTNGRYDSWGQGTQVTVSS", "polyreactivity (PSR sort gate)": "high polyreactivity"}
{"sequence": "QVQLQESGGGLVQAGGDLRLSCAASGNIFRDYIMGWYREAPGKEREFVAGIDRGANPNYADSVKGRFTISRDNAKNTVYLQMNSLKPEDTAVYYCAVHTAIVADFIYWGQGTQVTVSS", "polyreactivity (PSR sort gate)": "low polyreactivity"}
{"sequence": "QVQLVESGGGLVQAGGSLRLSCAASGSIFLGNAMGWYRQAPGKERELVAAISSITGRTYYAESVKGRFTISRDNAKNTVYLQMNSLKPEDTAVYYCNKVKRSFIVKTDDYWGQGTQVTVSS", "polyreactivity (PSR sort gate)": "high polyreactivity"}
{"sequence": "QVQLVESGGGLVQAGGSLRLSCAASGRTFPFNAMGWYRQAPGKERELVAVINSGGSTYYADSVKGRFTISRDNAKNTVYLQMNSLKPEDTAVYYCNAYSSRYRYNYWGQGTQVTVSS", "polyreactivity (PSR sort gate)": "high polyreactivity"}
{"sequence": "QVQLVESGGGLVQAGGSLRLSCAASGRTSWVYAMGWYRQAPGTERELVASIRKRTVVYADSVKGRFTISRDNAKNTVYLQMNSLKPEDTAVYYCNADTTFYGYRTYRPENYWGQGTQVTVSS", "polyreactivity (PSR sort gate)": "high polyreactivity"}
{"sequence": "QVQLVESGGVLVQAGGSLRLSCAPSGYIYSKYAMGWYRQAPGKERELVASITGRGSRTYYADSVKGRFTISRDNAKNTVYLQMNSLKPEDIAVYFCAADWYGQKTSNRWYFRPGYDYWGQGTQVTVSS", "polyreactivity (PSR sort gate)": "high polyreactivity"}
{"sequence": "QVKLVESGGGLVQAGRSLRLSFAASGSTFLYYGMGWYRQAPGKERELVATITWRGGRTYYADSVKGRFTISRDNAKNTVYLQMNSLKPEDTAVYYCAARVVGSYRKPYPYGLYYWGQGTQVTVSS", "polyreactivity (PSR sort gate)": "high polyreactivity"}
{"sequence": "QVQLVESGGGLVQAGGSLRLSCAASGFIFQTNVMGGYRQAPGKERELVAAISSGYSTYYADSVKGRFTISRDNAKNTVYLQMNSLKPEDTAVYNCAADVLGTTTTVGGFNYWGQGTQVTVSS", "polyreactivity (PSR sort gate)": "low polyreactivity"}
